Where two headings read alike, the source gives them in different places. *1 amine or outer side, *2 acyl side, *3 side chain or, on linkers, in order; H or OH if unused. Where a SMILES comes first, the peptide text is derived from it. Where no end group is shown, it is not given here. Side-chain parts run from the residue outwards. [ ]: non-standard residue; d: D form. The star is where a group is joined. C20 diacid = O=C(O)CCCCCCCCCCCCCCCCCCC(=O)*; γGlu = O=C(O)[C@H](CCC(=O)[*:2])N[*:1]; εLys = N[C@@H](CCCCN[*:1])C(=O)[*:2]; Palmitoyl = CCCCCCCCCCCCCCCC(=O)*; Aib = CC(C)(N)C(=O)O
T1: human GIP receptor (Homo sapiens, UniProt P48546)
T1 construct: expressed in transfected cells; host or cells: BHK cells (parent line BHKTS13) containing CRE luciferase
T1 sequence (P48546 22-466): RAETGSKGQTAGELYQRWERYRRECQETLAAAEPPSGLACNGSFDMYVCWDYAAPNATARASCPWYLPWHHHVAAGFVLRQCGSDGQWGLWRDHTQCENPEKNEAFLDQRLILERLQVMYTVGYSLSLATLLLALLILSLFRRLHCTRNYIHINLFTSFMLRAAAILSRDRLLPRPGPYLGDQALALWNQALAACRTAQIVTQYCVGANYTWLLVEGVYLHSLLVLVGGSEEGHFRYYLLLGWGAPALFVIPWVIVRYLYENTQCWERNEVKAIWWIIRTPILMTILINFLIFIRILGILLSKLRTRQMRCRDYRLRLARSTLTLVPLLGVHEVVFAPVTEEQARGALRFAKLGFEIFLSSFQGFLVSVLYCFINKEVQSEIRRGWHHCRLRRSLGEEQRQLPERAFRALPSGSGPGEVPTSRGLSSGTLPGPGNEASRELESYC

T2: human glucose-dependent insulinotropic polypeptide receptor (human, UniProt P48546 22-466)
T2 sequence (looked up): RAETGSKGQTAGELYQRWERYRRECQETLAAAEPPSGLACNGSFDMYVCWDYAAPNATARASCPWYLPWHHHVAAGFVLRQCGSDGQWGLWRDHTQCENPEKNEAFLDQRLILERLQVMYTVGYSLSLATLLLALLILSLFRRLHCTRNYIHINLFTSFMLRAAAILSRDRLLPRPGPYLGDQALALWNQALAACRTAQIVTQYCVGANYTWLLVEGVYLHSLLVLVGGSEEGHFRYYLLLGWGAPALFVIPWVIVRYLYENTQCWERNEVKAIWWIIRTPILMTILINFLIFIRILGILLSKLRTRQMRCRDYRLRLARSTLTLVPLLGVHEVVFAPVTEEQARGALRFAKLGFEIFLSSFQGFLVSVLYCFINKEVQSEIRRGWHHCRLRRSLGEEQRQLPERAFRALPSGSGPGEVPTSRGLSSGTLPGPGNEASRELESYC


Columns and labels:
[1] = Pharmacokinetic study in minipigs, i.v. administration; design: species or system Göttingen minipigs; conditions: female, Göttingen, minipig, in vivo, iv
Procedure, shortened: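 Female Göttingen minipigs (7-14 months, 16-35 kg), fasted ~18 h pre-dose to 4 h post-dose, received i.v. injections of usually 1.5-2 nmol/kg via central venous catheter. Plasma sampled up to 14 days, assayed by ELISA or LCMS; terminal half-life (harmonic mean) from non-compartmental analysis.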

human GIP receptor = target: T1, human GIP receptor; test: In vitro functional potency (CRE luciferase; whole cells), human GIPR; assay type: cell-based; conditions: BHK CRE luc2P hGIPR whole cells; Table 2; read-out: hGIPR CRE Luc EC50
Description: The purpose of this example is to test the functional activity, or potency, of the compounds in vitro at the human and mouse GLP-1, GIP, and Gcg receptors. The in vitro functional potency is the measure of target receptor activation in a whole cell assay.
In vitro functional potency was determined by measuring the response of the target receptor in a reporter gene assay in individual cell lines. The assay was performed in stably transfected BHK cell lines that expresses one of the following G-protein coupled receptors: human GLP-1 receptor, human GIP receptor, human Gcg receptor, mouse GLP-1 receptor, mouse GIP receptor, or mouse Gcg receptor; and where each cell line contains the DNA for the cAMP response element (CRE) coupled to a promoter and the gene for firefly luciferase (CRE luciferase). When the respective receptor is activated, it results in the production of cAMP, which in turn results in expression of the luciferase protein. When assay incubation is completed, luciferase substrate (luciferin) is added resulting in the enzymatic conversion of luciferin to oxyluciferin and producing bioluminescence. The luminescence is measured as the readout for the assay.
The cells lines used in these assays were BHK cells with BHKTS13 as a parent cell line. The cell lines were derived from a clone containing the CRE luciferase element and were established by further transfection with the respective receptor to obtain the relevant cell line.
The cells were cultured at 37° C. with 5% CO2 in Cell Culture Medium. They were aliquoted and stored in liquid nitrogen. The cells were kept in continuous culture and were seeded out the day before each assay.
GLP-1R and GcgR Cell Culture Medium consisted of DMEM medium with 10% FBS, 500 µg/mL G418, and 300 µg/mL hygromycin. GIPR Cell Culture Medium consisted of DMEM medium with 10% FBS, 400 µg/mL G418, and 300 µg/mL hygromycin. Assay Buffer consisted of DMEM w/o phenol red, 10 mM Hepes, 1× Glutamax, 1% ovalbumin, and 0.1% Pluronic F-68.
• 1) Cells were plated at 5000 cells/well and incubated overnight in the assay plate. • 2) Cells were washed once in DPBS. • 3) Stocks of the test compounds and reference compounds in concentrations ranging from 100-300 pM were diluted 1:150 in Assay Buffer.
The data from the microtiter plate reader was first regressed in an Excel in order to calculate the x-axis, log scale concentrations based on the individual test compound's stock concentration and the dilutions of the assay. […] The software performs a non-linear regression (log(agonist) vs response). A minimum of two replicates was measured for each sample. The reported values are averages of the replicates.

human GLP-1 receptor = target: T3, human GLP-1 receptor (Homo sapiens, UniProt P43220); test: In vitro functional potency (CRE luciferase; whole cells), human GLP-1R; assay type: cell-based; conditions: BHK CRE luc2P hGLP-1R whole cells; Table 2; read-out: hGLP-1R CRE Luc EC50
T3 construct: expressed in transfected cells; host or cells: BHK cells (parent line BHKTS13) containing CRE luciferase
T3 sequence (P43220 24-463): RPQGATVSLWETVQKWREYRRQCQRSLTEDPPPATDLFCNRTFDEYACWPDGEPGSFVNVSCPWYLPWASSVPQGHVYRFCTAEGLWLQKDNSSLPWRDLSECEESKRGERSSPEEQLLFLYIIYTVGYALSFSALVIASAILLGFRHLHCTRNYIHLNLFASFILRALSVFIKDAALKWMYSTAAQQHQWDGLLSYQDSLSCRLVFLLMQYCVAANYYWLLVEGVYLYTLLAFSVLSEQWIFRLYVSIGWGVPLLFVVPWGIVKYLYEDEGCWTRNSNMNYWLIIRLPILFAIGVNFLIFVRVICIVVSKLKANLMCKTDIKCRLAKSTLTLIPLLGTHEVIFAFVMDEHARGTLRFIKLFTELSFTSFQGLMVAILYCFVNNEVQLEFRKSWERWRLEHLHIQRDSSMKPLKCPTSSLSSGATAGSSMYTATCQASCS

[2] = target: T4, human glucagon-like peptide 1 receptor (human, UniProt P43220 24-463); test: cell-based or functional assay
human glucagon receptor [3] = target: T5, human glucagon receptor (human, UniProt P47871 26-477); test: cell-based or functional assay
T5 sequence (P47871 26-477): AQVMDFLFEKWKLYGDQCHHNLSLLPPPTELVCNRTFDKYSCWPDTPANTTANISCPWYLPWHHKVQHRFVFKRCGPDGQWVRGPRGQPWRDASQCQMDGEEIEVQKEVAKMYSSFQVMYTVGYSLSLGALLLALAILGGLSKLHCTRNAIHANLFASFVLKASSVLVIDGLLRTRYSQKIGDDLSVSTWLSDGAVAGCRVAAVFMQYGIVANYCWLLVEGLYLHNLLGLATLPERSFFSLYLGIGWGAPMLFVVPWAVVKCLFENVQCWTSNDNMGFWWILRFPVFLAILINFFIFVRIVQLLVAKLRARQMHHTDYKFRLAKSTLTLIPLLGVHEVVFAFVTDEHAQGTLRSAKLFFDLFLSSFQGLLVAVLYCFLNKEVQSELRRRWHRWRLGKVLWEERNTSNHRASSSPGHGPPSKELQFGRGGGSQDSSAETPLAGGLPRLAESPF

[4] = target: T2, human glucose-dependent insulinotropic …; test: cell-based or functional assay
[5] = target: T4, human glucagon-like peptide 1 receptor; test: cell-based or functional assay; remark: listed apart in the source
human glucagon receptor [6] = target: T5, human glucagon receptor; test: cell-based or functional assay; remark: listed apart in the source
[7] = target: T2, human glucose-dependent insulinotropic …; test: cell-based or functional assay; remark: listed apart in the source

| Molecule | half-life [1] | EC50 (human GIP receptor) | EC50 (human GLP-1 receptor) | hGLP-1R CRE Luc EC50 (pM) [2] | hGcgR CRE Luc EC50 (pM) (human glucagon receptor [3]) | hGIPR CRE Luc EC50 (pM) [4] | hGLP-1R CRE Luc EC50 (pM) [5] | hGcgR CRE Luc EC50 (pM) (human glucagon receptor [6]) | hGIPR CRE Luc EC50 (pM) [7] |
| --- | --- | --- | --- | --- | --- | --- | --- | --- | --- |
| CC[C@H](C)[C@H](NC(=O)[C@H](CO)NC(=O)[C@H](Cc1ccc(O)cc1)NC(=O)[C@H](CC(=O)O)NC(=O)[C@H](CO)NC(=O)[C@@H](NC(=O)[C@H](Cc1ccccc1)NC(=O)[C@@H](NC(=O)CNC(=O)[C@H](Cc1c[nH]cn1)NC(=O)C(C)(C)NC(=O)[C@@H](N)Cc1c[nH]cn1)[C@@H](C)O)[C@@H](C)O)C(=O)N[C@@H](Cc1ccc(O)cc1)C(=O)N[C@@H](CC(C)C)C(=O)N[C@@H](CCC(=O)O)C(=O)N[C@@H](CCCCNC(=O)[C@@H](N)CCCCNC(=O)[C@@H](N)CCCCNC(=O)CC[C@H](NC(=O)CCCCCCCCCCCCCCCCCCC(=O)O)C(=O)O)C(=O)N[C@@H](CCC(N)=O)C(=O)N[C@@H](Cc1ccc(O)cc1)C(=O)N[C@@H](C)C(=O)NC(C)(C)C(=O)N[C@@H](CCC(=O)O)C(=O)N[C@@H](Cc1ccccc1)C(=O)N[C@H](C(=O)N[C@@H](CCC(N)=O)C(=O)N[C@@H](Cc1c[nH]c2ccccc12)C(=O)N[C@@H](CC(C)C)C(=O)N[C@@H](CC(C)C)C(=O)N[C@@H](CCC(=O)O)C(=O)NCC(=O)NCC(=O)N1CCC[C@H]1C(=O)N[C@@H](CO)C(=O)N[C@@H](CO)C(=O)NCC(=O)N[C@@H](C)C(=O)N1CCC[C@H]1C(=O)N1CCC[C@H]1C(=O)N1CCC[C@H]1C(=O)N[C@@H](CO)C(N)=O)C(C)C [Compound No. 24] (H-H[Aib]HGTFTSDYSIYLEK([εLys-εLys-γGlu-C20 diacid])QYA[Aib]EFVQWLLEGGPSSGAPPPS-NH2) | 82 h | 7.7 pM |  |  |  |  |  |  |  |
| CC[C@H](C)[C@H](NC(=O)[C@H](CO)NC(=O)[C@H](Cc1ccc(O)cc1)NC(=O)[C@H](CC(=O)O)NC(=O)[C@H](CO)NC(=O)[C@@H](NC(=O)[C@H](Cc1ccccc1)NC(=O)[C@@H](NC(=O)CNC(=O)[C@H](Cc1c[nH]cn1)NC(=O)C(C)(C)NC(=O)[C@@H](N)Cc1c[nH]cn1)[C@@H](C)O)[C@@H](C)O)C(=O)N[C@@H](CC(C)C)C(=O)N[C@@H](CC(C)C)C(=O)N[C@@H](CCC(=O)O)C(=O)N[C@@H](CCCCNC(=O)[C@@H](N)CCCCNC(=O)[C@@H](N)CCCCNC(=O)CC[C@H](NC(=O)CCCCCCCCCCCCCCCCCCC(=O)O)C(=O)O)C(=O)N[C@@H](CCCCN)C(=O)N[C@@H](Cc1ccc(O)cc1)C(=O)N[C@@H](C)C(=O)NC(C)(C)C(=O)N[C@@H](CCC(=O)O)C(=O)N[C@@H](Cc1ccccc1)C(=O)N[C@H](C(=O)N[C@@H](CCC(N)=O)C(=O)N[C@@H](Cc1c[nH]c2ccccc12)C(=O)N[C@@H](CC(C)C)C(=O)N[C@@H](CC(C)C)C(=O)N[C@@H](CCC(=O)O)C(=O)NCC(=O)NCC(=O)N1CCC[C@H]1C(=O)N[C@@H](CO)C(=O)N[C@@H](CO)C(=O)NCC(=O)N[C@@H](C)C(=O)N1CCC[C@H]1C(=O)N1CCC[C@H]1C(=O)N1CCC[C@H]1C(=O)N[C@@H](CO)C(N)=O)C(C)C [Compound No. 41] (H-H[Aib]HGTFTSDYSILLEK([εLys-εLys-γGlu-C20 diacid])KYA[Aib]EFVQWLLEGGPSSGAPPPS-NH2) | 69 h | 9.3 pM | 4.3 pM |  |  |  |  |  |  |
| Y[Aib]QGTFTSDYSIYLDKQAA[Aib]EFVNWLLAGGPSSGKPPPS-NH2 (not fully specified (residue 35)) [Compound No. 66] |  |  |  | 12 pM | 1020 pM | 26 pM |  |  |  |
| Y[Aib]QGTFTSDYSIYLDKQAA[Aib]EFVNWLLAGGPSSGAPPPSK(Palmitoyl)-NH2 (N-terminus assumed; SMILES CCCCCCCCCCCCCCCC(=O)NCCCC[C@H](NC(=O)[C@H](CO)NC(=O)[C@@H]1CCCN1C(=O)[C@@H]1CCCN1C(=O)[C@@H]1CCCN1C(=O)[C@H](C)NC(=O)CNC(=O)[C@H](CO)NC(=O)[C@H](CO)NC(=O)[C@@H]1CCCN1C(=O)CNC(=O)CNC(=O)[C@H](C)NC(=O)[C@H](CC(C)C)NC(=O)[C@H](CC(C)C)NC(=O)[C@H](Cc1c[nH]c2ccccc12)NC(=O)[C@H](CC(N)=O)NC(=O)[C@@H](NC(=O)[C@H](Cc1ccccc1)NC(=O)[C@H](CCC(=O)O)NC(=O)C(C)(C)NC(=O)[C@H](C)NC(=O)[C@H](C)NC(=O)[C@H](CCC(N)=O)NC(=O)[C@H](CCCCN)NC(=O)[C@H](CC(=O)O)NC(=O)[C@H](CC(C)C)NC(=O)[C@H](Cc1ccc(O)cc1)NC(=O)[C@@H](NC(=O)[C@H](CO)NC(=O)[C@H](Cc1ccc(O)cc1)NC(=O)[C@H](CC(=O)O)NC(=O)[C@H](CO)NC(=O)[C@@H](NC(=O)[C@H](Cc1ccccc1)NC(=O)[C@@H](NC(=O)CNC(=O)[C@H](CCC(N)=O)NC(=O)C(C)(C)NC(=O)[C@@H](N)Cc1ccc(O)cc1)[C@@H](C)O)[C@@H](C)O)[C@@H](C)CC)C(C)C)C(N)=O) [Compound No. 58] |  |  |  | 4.1 pM | 21.2 pM | 7.2 pM |  |  |  |
| Y[Aib]QGTFTSDYSIKLDKQAA[Aib]EFVNWLLAGGPSSGAPPPS-NH2 (not fully specified (residue 13)) [Compound No. 62] |  |  |  | 36 pM | 891 pM | 65 pM |  |  |  |
| Y[Aib]QGTFTSDYSIYLDKQAA[Aib]EFVNWLLAGGPSSGAPPPSK-NH2 (not fully specified (residue 40)) [Compound No. 59] |  |  |  | 11.7 pM | 703 pM | 44.5 pM |  |  |  |
| Y[Aib]QGTFTSDYSIYLDKQAA[Aib]EFVNWLLAGGPSSGAPPPS-NH2 (not fully specified (residue 16); printed as Y-Aib-QGTFTSDYSIYLD-K[2-[2-[2-[[2-[2-[2-[[(4S)-4-carboxy-4-(17-carboxyheptadecanoylamino)butanoyl]amino]ethoxy]ethoxy]acetyl]amino]ethoxy]ethoxy]acetyl]-QAA-Aib-EFVNWLLAGGPSSGAPPPS-NH2) [Compound No. 1] |  |  |  | 8.6 pM | 157 pM | 23.7 pM | 8.6 pM | 157 pM | 23.7 pM |
| Y[Aib]QGTFTSDYSIYLDKQAA[Aib]EFVKWLLAGGPSSGAPPPS-NH2 (not fully specified (residue 24)) [Compound No. 64] |  |  |  | 45.4 pM | 464 pM | 174 pM |  |  |  |
| Y[Aib]QGTFTSDYSIYKDKQAA[Aib]EFVNWLLAGGPSSGAPPPS-NH2 (not fully specified (residue 14)) [Compound No. 63] |  |  |  | 25 pM | 1110 pM | 175 pM |  |  |  |
| Y[Aib]QGTFTSDYSIYLDKQAAKEFVNWLLAGGPSSGAPPPS-NH2 (not fully specified (residue 20); printed as Y-Aib-QGTFTSDYSIYLDKQAA-K[2-[2-[2-[[2-[2-[2-[[(4S)-4-carboxy-4-(17-carboxyheptadecanoylamino)butanoyl]amino]ethoxy]ethoxy]acetyl]amino]ethoxy]ethoxy]acetyl]-EFVNWLLAGGPSSGAPPPS-NH2) [Compound No. 60] |  |  |  | 14.9 pM | 182 pM | 416 pM |  |  |  |
| Y[Aib]QGTFTSDYSIYLDKQAA[Aib]EFVNWLLAKGPSSGAPPPS-NH2 (not fully specified (residue 29)) [Compound No. 65] |  |  |  | 132 pM | 1350 pM | 56 pM |  |  |  |

Source: US20230391845A1, “GLP-1, GIP AND GLUCAGON RECEPTOR TRIPLE AGONISTS” (priority 2020, published 2023)
